The values below come from article PMC13155533, “The secreted protein PCYOX1L controls the surface expression of acid-sensing ion channel 1a” (Science Advances, 2025).

Series [1] deals with the molecule itself. Kind of series: native gel or EMSA; high-resolution clear native PAGE (4 to 16%) of GFP-tagged proteins from 1% digitonin lysates of transfected HEK cells, GFP fluorescence scan; ASIC1a-GFP coexpressed with PCYOX1L-GFP.
Series [2] deals with the molecule itself. Kind of series: native gel or EMSA; high-resolution clear native PAGE (4 to 16%) of GFP-tagged proteins from 1% digitonin lysates of transfected HEK cells, GFP fluorescence scan; without coexpressed PCYOX1L.

B1: rat ASIC1a-GFP (natural protein, UniProt P55926-1 1-526, looked up)
chain: MELKTEEEEVGGVQPVSIQAFASSSTLHGLAHIFSYERLSLKRALWALCFLGSLAVLLCVCTERVQYYFCYHHVTKLDEVAASQLTFPAVTLCNLNEFRFSQVSKNDLYHAGELLALLNNRYEIPDTQMADEKQLEILQDKANFRSFKPKPFNMREFYDRAGHDIRDMLLSCHFRGEACSAEDFKVVFTRYGKCYTFNSGQDGRPRLKTMKGGTGNGLEIMLDIQQDEYLPVWGETDETSFEAGIKVQIHSQDEPPFIDQLGFGVAPGFQTFVSCQEQRLIYLPSPWGTCNAVTMDSDFFDSYSITACRIDCETRYLVENCNCRMVHMPGDAPYCTPEQYKECADPALDFLVEKDQEYCVCEMPCNLTRYGKELSMVKIPSKASAKYLAKKFNKSEQYIGENILVLDIFFEVLNYETIEQKKAYEIAGLLGDIGGQMGLFIGASILTVLELFDYAYEVIKHRLCRRGKCQKEAKRSSADKGVALSLDDVKRHNPCESLRGHPAGMTYAANILPHHPARGTFEDFTC
notes: ASIC1a, rat, in pEGFP-N1; the methods say that rat ASIC1a was used for coexpression with PCYOX1L in HEK293 cells; The vector pEGFP-N1 would put GFP at the C-terminus; source: HEK cells, transfected, in digitonin lysate
A word on the stoichiometry N: it is a count of units in the complex or per binding partner. On to B1, for which, in series [1], the “stoichiometry N” value was 3.

B2: rat ASIC2a-GFP (natural protein, UniProt Q62962-1 1-512, looked up)
chain: MDLKESPSEGSLQPSSIQIFANTSTLHGIRHIFVYGPLTIRRVLWAVAFVGSLGLLLVESSERVSYYFSYQHVTKVDEVVAQSLVFPAVTLCNLNGFRFSRLTTNDLYHAGELLALLDVNLQIPDPHLADPTVLEALRQKANFKHYKPKQFSMLEFLHRVGHDLKDMMLYCKFKGQECGHQDFTTVFTKYGKCYMFNSGEDGKPLLTTVKGGTGNGLEIMLDIQQDEYLPIWGETEETTFEAGVKVQIHSQSEPPFIQELGFGVAPGFQTFVATQEQRLTYLPPPWGECRSSEMGLDFFPVYSITACRIDCETRYIVENCNCRMVHMPGDAPFCTPEQHKECAEPALGLLAEKDSNYCLCRTPCNLTRYNKELSMVKIPSKTSAKYLEKKFNKSEKYISENILVLDIFFEALNYETIEQKKAYEVAALLGDIGGQMGLFIGASLLTILELFDYIYELIKEKLLDLLGKEEEEGSHDENMSTCDTMPNHSETISHTVNVPLQTALGTLEEIAC
notes: ASIC2a, rat, in pEGFP-N1; In the functional row the untagged rat ASIC2a (pcDNA3.1) was used; source: HEK cells, transfected, in digitonin lysate
As for B2, in series [2], the “stoichiometry N” value came out at 3.
